This is an account of results in patent US20180344812A1 (Scripps Research, published 2018).

T1: human Glucose-dependent insulinotropic polypeptide receptor (GIPR) (human, UniProt P48546 22-466)
T1 sequence (looked up): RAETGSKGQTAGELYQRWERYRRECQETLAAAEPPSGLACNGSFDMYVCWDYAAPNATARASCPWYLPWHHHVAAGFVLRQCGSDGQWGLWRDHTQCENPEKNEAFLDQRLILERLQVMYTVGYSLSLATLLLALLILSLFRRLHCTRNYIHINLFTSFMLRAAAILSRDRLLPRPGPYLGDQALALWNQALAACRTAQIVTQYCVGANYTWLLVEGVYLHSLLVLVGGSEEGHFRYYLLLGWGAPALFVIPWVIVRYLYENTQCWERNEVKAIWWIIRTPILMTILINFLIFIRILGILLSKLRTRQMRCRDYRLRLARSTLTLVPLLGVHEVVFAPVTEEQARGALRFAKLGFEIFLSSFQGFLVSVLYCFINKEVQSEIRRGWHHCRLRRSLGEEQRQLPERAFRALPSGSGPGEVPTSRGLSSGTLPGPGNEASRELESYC

T2: human Glucagon-like peptide 2 receptor (GLP-2R) (human, UniProt O95838 1-553)
T2 sequence (looked up): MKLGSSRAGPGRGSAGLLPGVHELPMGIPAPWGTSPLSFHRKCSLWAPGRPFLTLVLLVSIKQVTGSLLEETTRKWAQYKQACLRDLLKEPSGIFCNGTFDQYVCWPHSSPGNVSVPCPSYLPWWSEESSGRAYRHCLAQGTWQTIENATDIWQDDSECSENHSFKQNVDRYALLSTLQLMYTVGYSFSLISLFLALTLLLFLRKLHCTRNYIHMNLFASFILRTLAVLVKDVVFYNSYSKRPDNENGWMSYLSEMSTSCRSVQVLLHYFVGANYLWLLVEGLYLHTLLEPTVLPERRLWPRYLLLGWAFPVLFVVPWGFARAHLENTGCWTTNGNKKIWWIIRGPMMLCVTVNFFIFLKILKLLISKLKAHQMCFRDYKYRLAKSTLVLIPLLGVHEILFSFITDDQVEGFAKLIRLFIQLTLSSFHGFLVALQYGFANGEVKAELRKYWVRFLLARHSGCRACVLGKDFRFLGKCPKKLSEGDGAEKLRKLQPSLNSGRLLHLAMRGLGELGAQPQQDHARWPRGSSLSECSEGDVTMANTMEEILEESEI

B1: mTA 63: GLP-2 (H) and L5 (peptide)
peptide: HGDGSFSDEMNTILDNCAARDFICWLIQTKITDPSSGAPPPS
modifications: linker 17-24 via L5; also: staple L5 carries C18 diacid-Lys-PEG2-ornithine lipid
B2: mTA 65: GLP-2 (I) and L3 (peptide)
peptide: B1 peptide with E9C, N16C, C17L, C24N
modifications: linker 9-16 via L3; also: staple L3 carries myristic acid-PEG-PEG-ornithine lipid
B3: mTA 68: GLP-2 (J) and L3 (peptide)
peptide: B1 peptide with N11C, C17L, A18C, C24N
modifications: linker 11-18 via L3; also: staple L3 carries myristic acid-PEG-PEG-ornithine lipid
B4: mTA 61: GLP-2 (H) and L3 (peptide)
peptide: B1 peptide
modifications: linker 17-24 via L3; also: staple L3 carries myristic acid-PEG-PEG-ornithine lipid
B5: mTA 70: GLP-2 (J) and L5 (peptide)
peptide: B1 peptide with N11C, C17L, A18C, C24N
modifications: linker 11-18 via L5; also: staple L5 carries C18 diacid-Lys-PEG2-ornithine lipid

Residue numbers refer to the chain shown, from its start. Bridges are numbered along the chain shown (N, C = ends). Where no end group is shown, it is not given here. [ ]: non-standard residue; d: D form. L1 = C4 bis(bromoacetamide) staple without lipid; L3 = myristic acid-PEG-PEG-ornithine staple; L5 = C18 diacid-Lys-PEG2-ornithine staple; L2 = myristic acid-PEG-ornithine staple; L6 = made as L5 but on Rink amide resin

One assay deals with T3, human glucagon-like peptide 1 receptor (GLP-1R) (human, UniProt P43220 24-463). The assay can be described thus: cell-based or functional assay.
Regarding Y[dA]EGTFTSDYSIYLDKCAAKEFVCWLLAGGPSSGAPPPSK (linker 17-24 via L3) [mTA 41: GLP-1/GIP (A) and L3], the “EC50, CRE-luciferase reporter in HEK293-GLP-1R-CRE cells” value (from here on “EC50 … in HEK293-GLP-1R-CRE cells”) stood at 20 pM.

Consider Y[dA]EGTFTSDYSIYLDKCAAKEFVCWLLAGGPSSGAPPPSK (linker 17-24 via L5) [mTA 43: GLP-1/GIP (A) and L5], for which the “EC50 … in HEK293-GLP-1R-CRE cells” value worked out at 500 pM.

In the case of Y[dA]EGTFTSDYSIYLDKCAAKEFVCWLLAGGPSSGAPPPSK (linker 17-24 via L1) [mTA 40: GLP-1/GIP (A) and L1], the “EC50 … in HEK293-GLP-1R-CRE cells” value is 20 pM.

The next assay has as its target T1, human Glucose-dependent insulinotropic …. The assay can be described thus: cell-based or functional assay.
In the case of Y[dA]EGTFTSDYSIYLDKCAAKEFVCWLLAGGPSSGAPPPSK (linker 17-24 via L3) [mTA 41: GLP-1/GIP (A) and L3], the “EC50, CRE-luciferase reporter in HEK293-GIPR-CRE cells” value (“EC50 … in HEK293-GIPR-CRE cells” below) turned out to be 60 pM.

As to Y[dA]EGTFTSDYSIYLDKCAAKEFVCWLLAGGPSSGAPPPSK (linker 17-24 via L5) [mTA 43: GLP-1/GIP (A) and L5], the “EC50 … in HEK293-GIPR-CRE cells” value was 1100 pM.

For Y[dA]EGTFTSDYSIYLDKCAAKEFVCWLLAGGPSSGAPPPSK (linker 17-24 via L1) [mTA 40: GLP-1/GIP (A) and L1], the “EC50 … in HEK293-GIPR-CRE cells” value was determined as 20 pM.

Another assay concerns the target T3, human glucagon-like peptide 1 receptor …. The assay can be described thus: cell-based or functional assay. This is another data set of the same source.
With Y[dA]EGTFISDYSKYLDECAAKEFICWLMNTKRNRNNIA (linker 17-24 via L1) [mTA 44: GLP-1/GIP/Glucagon (A) and L1], the “EC50 … in HEK293-GLP-1R-CRE cells” value amounted to 9700 pM.

The target in the next assay is human glucagon receptor (GCGR) (human, UniProt P47871 26-477). The assay can be described thus: cell-based or functional assay.
Chain of human glucagon receptor (GCGR) (P47871 26-477): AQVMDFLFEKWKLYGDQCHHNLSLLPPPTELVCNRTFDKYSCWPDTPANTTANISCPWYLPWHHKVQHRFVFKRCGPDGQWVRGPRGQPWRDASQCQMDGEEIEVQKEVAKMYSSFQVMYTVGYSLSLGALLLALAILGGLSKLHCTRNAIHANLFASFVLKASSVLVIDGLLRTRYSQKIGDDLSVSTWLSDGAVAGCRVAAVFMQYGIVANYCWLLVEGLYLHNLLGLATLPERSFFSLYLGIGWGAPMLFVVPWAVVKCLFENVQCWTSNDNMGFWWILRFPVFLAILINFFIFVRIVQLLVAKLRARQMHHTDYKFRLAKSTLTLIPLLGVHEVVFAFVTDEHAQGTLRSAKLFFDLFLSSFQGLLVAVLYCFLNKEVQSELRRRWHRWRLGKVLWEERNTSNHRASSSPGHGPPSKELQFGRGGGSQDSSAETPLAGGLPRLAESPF
For the molecule Y[dA]EGTFISDYSKYLDECAAKEFICWLMNTKRNRNNIA (linker 17-24 via L1) [mTA 44: GLP-1/GIP/Glucagon (A) and L1], the “EC50, CRE-luciferase reporter in HEK293-GCGR-CRE cells” value was found to be 1600 pM.

Another assay deals with T1, human Glucose-dependent insulinotropic …. The assay can be described thus: cell-based or functional assay. The source holds these as a separate data set.
Turning to Y[dA]EGTFISDYSKYLDECAAKEFICWLMNTKRNRNNIA (linker 17-24 via L1) [mTA 44: GLP-1/GIP/Glucagon (A) and L1], the “EC50 … in HEK293-GIPR-CRE cells” value turned out to be 40 pM.

The target of the next assay is T2, human Glucagon-like peptide 2 receptor …. The assay can be described thus: cell-based or functional assay.
Regarding HGDGSFSDEMCTILDNLCARDFINWLIQTKITD (linker 11-18 via L1) [mTA 57: GLP-2 (G) and L1], the “EC50, CRE-luciferase reporter in HEK293-GLP-2R-CRE cells” value (“EC50 … in HEK293-GLP-2R-CRE cells” for short) amounted to 46 pM.

As to HGDGSFSDEMCTILDNLCARDFINWLIQTKITD (linker 11-18 via L5) [mTA 58: GLP-2 (G) and L5], the “EC50 … in HEK293-GLP-2R-CRE cells” value came out at 7980 pM.

Turning to HGDGSFSDEMNTILDNCAARDFICWLIQTKITDPSSGAPPPS (linker 17-24 via L1) [mTA 59: GLP-2 (H) and L1], the “EC50 … in HEK293-GLP-2R-CRE cells” value stood at 64 pM.

Turning to HGDGSFSDCMNTILDCLAARDFINWLIQTKITDPSSGAPPPS (linker 9-16 via L5; also: staple L5 carries C18 diacid-Lys-PEG2-ornithine lipid) [mTA 67: GLP-2 (I) and L5], the “EC50 … in HEK293-GLP-2R-CRE cells” value came to 3100 pM.

Take B1: the “EC50 … in HEK293-GLP-2R-CRE cells” value was 2660 pM.

B2: the “EC50 … in HEK293-GLP-2R-CRE cells” value came out at 60 pM.

Consider B3, for which the “EC50 … in HEK293-GLP-2R-CRE cells” value is 28 pM.

As for B4, the “EC50 … in HEK293-GLP-2R-CRE cells” value was determined as 68 pM.

For the molecule HGDGSFSDEMNTILDNCAARDFICWLIQTKITDPSSGAPPPS (linker 17-24 via L6) [mTA 64: GLP-2 (H) and L6], the “EC50 … in HEK293-GLP-2R-CRE cells” value came to 700 pM.

HGDGSFSDEMNTILDNCAARDFICWLIQTKITDPSSGAPPPS (linker 17-24 via L2; also: staple L2 carries myristic acid-PEG-ornithine lipid) [mTA 60: GLP-2 (H) and L2]: the “EC50 … in HEK293-GLP-2R-CRE cells” value amounted to 68 pM.

For the molecule B5, the “EC50 … in HEK293-GLP-2R-CRE cells” value was determined as 8800 pM.

In the case of HGDGSFSCEMNTILCALAARDFINWLIQTKITD (linker 8-15 via L1) [mTA 53: GLP-2 (D) and L1], the “EC50 … in HEK293-GLP-2R-CRE cells” value worked out at 14300 pM.

Take HGDGSFSDEMNTILDALAARCFINWLICTKITD (linker 21-28 via L1) [mTA 54: GLP-2 (E) and L1]: the “EC50 … in HEK293-GLP-2R-CRE cells” value came to 130 pM.

As to HGDGSFSDCMNTILDCLAARDFINWLIQTKITD (linker 9-16 via L5) [mTA 56: GLP-2 (F) and L5], the “EC50 … in HEK293-GLP-2R-CRE cells” value came to 770 pM.

Consider HGDGSFSDCMNTILDCLAARDFINWLIQTKITD (linker 9-16 via L1) [mTA 55: GLP-2 (F) and L1], for which the “EC50 … in HEK293-GLP-2R-CRE cells” value worked out at 64 pM.
